Assay results taken from PMC9398005 (2021).
Each block holds one binder with its values, some of them ahead of it.

How the values were obtained:
Experiment in all cases: ITC
mouse Rbpj (53-474) WT = mouse Rbpj (53-474) WT (mouse, UniProt P31266 53-474)
[1] = target: Drosophila Su(H) (98-523) K132M (Drosophila, UniProt P28159 98-523, K132M | R155T)
[2] = target: Drosophila Su(H) (98-523) E137V (Drosophila, UniProt P28159 98-523, E137V | R155T)
[3] = target: mouse Rbpj (53-474) K195E (mouse, UniProt P31266 53-474, K195E)
mouse Rbpj (53-474) K195E, sequence (P31266 53-474 K195E): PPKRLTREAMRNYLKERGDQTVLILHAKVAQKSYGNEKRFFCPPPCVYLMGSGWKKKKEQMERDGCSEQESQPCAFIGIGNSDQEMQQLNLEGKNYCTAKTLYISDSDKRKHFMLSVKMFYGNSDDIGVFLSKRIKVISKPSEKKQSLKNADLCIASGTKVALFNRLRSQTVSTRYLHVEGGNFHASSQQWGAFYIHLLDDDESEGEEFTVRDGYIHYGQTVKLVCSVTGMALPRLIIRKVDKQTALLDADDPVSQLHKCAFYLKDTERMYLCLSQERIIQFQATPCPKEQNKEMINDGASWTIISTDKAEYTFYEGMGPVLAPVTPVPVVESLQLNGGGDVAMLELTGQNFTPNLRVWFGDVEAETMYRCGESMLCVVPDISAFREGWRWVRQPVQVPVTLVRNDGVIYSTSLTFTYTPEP

Drosophila Su(H) (98-523) E137V, sequence (P28159 98-523 E137V/R155T/N281G): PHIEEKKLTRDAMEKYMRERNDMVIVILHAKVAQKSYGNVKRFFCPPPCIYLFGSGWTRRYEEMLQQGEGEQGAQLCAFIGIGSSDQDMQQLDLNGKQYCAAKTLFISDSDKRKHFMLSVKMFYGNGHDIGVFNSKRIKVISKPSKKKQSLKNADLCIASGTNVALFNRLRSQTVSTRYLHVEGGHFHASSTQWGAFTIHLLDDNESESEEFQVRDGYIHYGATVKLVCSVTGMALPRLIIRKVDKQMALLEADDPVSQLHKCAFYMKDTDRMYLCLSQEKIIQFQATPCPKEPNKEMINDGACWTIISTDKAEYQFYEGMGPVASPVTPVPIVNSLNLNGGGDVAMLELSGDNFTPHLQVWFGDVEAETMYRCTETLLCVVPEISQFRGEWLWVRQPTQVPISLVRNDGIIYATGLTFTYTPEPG
Drosophila Su(H) (98-523) K132M, sequence (P28159 98-523 K132M/R155T/N281G): as the sequence (P28159 98-523 E137V/R155T/N281G) above, with K35M, V40E counted along it
mouse Rbpj (53-474) WT, sequence (P31266 53-474): as the sequence (P31266 53-474 K195E) above, with E143K counted along it

Kd (mouse Rbpj (53-474) WT): 4 nM
B1: SHARP residues 2776-2833 (domain or fragment)
chain: RASANENSRFHPGSMPVIDDRPADAGSGAGLRVNTSEGVVLLSYSGQKTEGPQRISAK

Kd [1]: 107 nM
Kd [2]: 166 nM
B2: Drosophila Notch RAM peptide (residues 1763-1790) (peptide)
peptide: VLSTQRKRAHGVTWFPEGFRAPAAVMSR

Kd [3]: 22 nM
B3: Notch1 RAM peptide (human Notch1 residues 1754-1781) (peptide)
peptide: VLLSRKRRRQHGQLWFPEGFKVSEASKK
